Results taken from publication PMC11908141 (bioRxiv, 2025).

Biological target: the molecule itself
Assay: cryo-EM structure

B1: enolase, native, Francisella novicida (enzyme)
chain: MSSQIKQVFARQILDSRGNPTVEVDVVLESGAFGRAAVPSGASTGIREALELRDGNKALFLGKSVYKAVENVNTKIAQAVKGLDALDQRLIDKTMIELDGSENKKNLGANAILGVSLATARAAASHLRKPFYRYLMDVKEYLMPVPMMNVINGGSHADNNVDMQEFMIVPAGFDTFSEALRCGTEVFHTLKKVLIADGYSVAGVGDEGGYAPDLPSNEAAIEAILKAVKEAGYEPGKHVFIALDPASSEFYKDGKYELKSENKSLTSEEMIDYYAAWVEKYPIVSIEDGLAEEDWAGWKLLTEKLGNKVQLVGDDLFVTNPSILAKGIEKGIANSILIKLNQIGTLTETFEAMAMAGQAGYTCVVSHRSGETSDTIIADLAVATCSGQIKTGSLSRSDRIAKYNQLLRIEEELGENAIYPGIKAFVFNSDEEVEEDVQEIIVEDSEAEKVVVQVEE
stoichiometry N: 2
